# According to patent US20250297030A1 (SHANDONG SIMCERE BIOPHARMACEUTICAL, published 2025):
# Where two headings read alike, the source gives them in different places.
# T1: Cyno MUC17 ECD3577-his (His-tagged cynomolgus monkey MUC17 protein extracellular domain fusion protein) (cynomolgus monkey)
# T1 construct: also called monkey MUC17-his protein; monkey MUC17 ECD3577-His
# T1 chain: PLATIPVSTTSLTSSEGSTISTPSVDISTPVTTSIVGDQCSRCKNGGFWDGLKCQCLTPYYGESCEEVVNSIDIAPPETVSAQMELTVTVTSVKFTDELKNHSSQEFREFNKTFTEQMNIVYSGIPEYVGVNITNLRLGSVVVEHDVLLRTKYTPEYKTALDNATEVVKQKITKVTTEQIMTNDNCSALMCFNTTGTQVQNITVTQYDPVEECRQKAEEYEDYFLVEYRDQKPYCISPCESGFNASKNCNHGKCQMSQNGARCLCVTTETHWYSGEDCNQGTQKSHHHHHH
# T2: monkey MUC17 fragment on FlpinCHO-Cyno(3597-3964)-D2 cells (monkey)
# T2 chain: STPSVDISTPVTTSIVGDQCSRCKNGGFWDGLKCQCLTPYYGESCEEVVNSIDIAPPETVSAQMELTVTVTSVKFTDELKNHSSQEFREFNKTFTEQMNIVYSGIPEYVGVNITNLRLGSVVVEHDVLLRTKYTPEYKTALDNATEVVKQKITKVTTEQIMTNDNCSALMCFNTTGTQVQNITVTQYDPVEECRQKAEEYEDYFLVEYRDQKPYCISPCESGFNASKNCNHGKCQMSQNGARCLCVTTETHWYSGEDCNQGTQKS
# Legend:
# [1] = target: T1, Cyno MUC17 ECD3577-his (His-tagged …); assay: ELISA on coated monkey MUC17 ECD3577-His, OD450
# Procedure: (§1) A human MUC17-his protein was diluted with PBS to a final concentration of […] and then added to a 96-well ELISA plate at 50 µL/well. The plate was incubated at 4° C. overnight. The next day, the plate was washed 2 times with PBST, and a blocking buffer [PBS+2% (w/w) BSA] was added for blocking at room temperature for 2 h. The blocking buffer was discarded, and the recombinant antibody and positive and negative control antibody with a starting concentration of 100 nM serially diluted by 3 folds were added at 50 μL/well. After incubation at 37° C. for 1 h, the plate was washed 3 times with PBST. A horseradish peroxidase (HRP)-labeled secondary antibody (purchased from Merck, Cat. No. AP113P) was added for incubation at 37° C. for 1 h, and the plate was washed 5 times with PBST. A TMB substrate was added at 50 μL/well for incubation at room temperature for 10 min, and then a stop solution (1.0 M HCl) was added at 50 µL/well. The OD₄₅₀ nm values were read by an ELISA plate reader (Multimode Plate Reader, EnSight, purchased from Perkin Elmer).
# (§2) The monkey MUC17-his protein was subjected to ELISA and data analysis according to the method described in Example 3.2. The recombinant antibodies Lab315-huFc, Lab316-huFc, Lab320-huFc, Lab331-huFc, and Lab332-huFc have a relatively good binding activity with the monkey MUC17-his protein.
# [2] = target: T1, Cyno MUC17 ECD3577-his (His-tagged …); assay: ELISA on coated monkey MUC17 ECD3577-His, OD450
# Procedure: To assay the binding activity of the humanized antibodies with the monkey MUC17-his protein, the monkey MUC17-his protein was diluted with PBS to a final concentration of […] and subjected to ELISA assay and data analysis according to the method described in Example 3.3. The humanized antibodies SCR-7724, SCR-7782, SCR-7783, SCR-7784, and SCR-7785 have cross-binding activity with the monkey MUC17 protein, maintaining the binding ability of the recombinant antibody.
# [3] = target: T3, Human MUC17 ECD4131-his (His-tagged human MUC17 protein extracellular domain fusion protein) (human, UniProt Q685J3 4131-4393); assay: ELISA on coated human MUC17 ECD4131-his, OD450
# T3 construct: a truncation of the extracellular domain; also called human MUC17-his protein; human MUC17-His
# [4] = target: T4, human MUC17 on NUGC4 endogenous tumor cells (human, UniProt Q685J3 26-4493); assay: FACS on NUGC4 cells, MFI
# Procedure: (§3) Then a complete medium was added to stop the digestion, and the cells were blown into a single cell suspension. After counting, the cells were centrifuged, and the cell pellet was resuspended to 2×10⁶ cells/mL in an FACS buffer (PBS+2% fetal bovine serum), and added to a 96-well FACS reaction plate at 100 µL/well. The plate was centrifuged, and the supernatant was discarded. An antibody sample to be tested (diluted in a 3-fold gradient from a starting concentration of 100 nM) was added at 50 µL/well and uniformly mixed with the cells, and the mixture was incubated at 4° C. for 1 h. […] The results were tested and analyzed by FACS (FACS Canto™, purchased from BD) after the plate was centrifuged and washed 3 times with a PBS buffer and resuspended with 100 μL of PBS. Data analysis was performed by software (FlowJo) to obtain the mean fluorescence intensity (MFI) of the cells. Then, analysis was performed by software (GraphPad Prism8), data were fitted, and EC50 values were calculated. As shown in FIGS. 3A-3B, the recombinant antibodies Lab315-huFc, Lab316-huFc, Lab320-huFc, Lab331-huFc, and Lab332-huFc are all capable of binding specifically to NUGC-4 cells.
# (§4) The preparation of the assay cells and the antibodies to be tested and the assay were performed with reference to Example 3.4. […]
# [5] = target: T3, Human MUC17 ECD4131-his (His-tagged …); assay: ELISA on coated human MUC17 ECD4131-his, OD450; remark: listed apart in the source
# Procedure: as §1
# [6] = target: T4, human MUC17 on NUGC4 endogenous tumor …; assay: FACS on NUGC4 cells, MFI; remark: listed apart in the source
# Procedure: as §3, §4
# [7] = target: T2, monkey MUC17 fragment on …; assay: FACS on FlpinCHO-Cyno(3597-3964)-D2 cells, MFI
# [8] = target: T3, Human MUC17 ECD4131-his (His-tagged …); assay: ELISA on coated human MUC17 ECD4131-his, OD450; remark: listed apart in the source
# Procedure: as §1
# [9] = target: T1, Cyno MUC17 ECD3577-his (His-tagged …); assay: ELISA on coated monkey MUC17 ECD3577-His, OD450
# Procedure: as §1, §2
binder,measurement,setting,value
"2D11-hIgG1 (antibody, V domains shown, Control antibody from WO2019133961A1, expressed as human IgG1 + kappa; also called 21D11; MUC17 control antibody) VH: QVQLVESGGGVVQPGRSLRLSCAASGFTFSNHGMHWVRQAPGKCLEWVAGIWSDASNKYYAEAVKGRFTISRDTSKNTLYLQMNSLRAEDTAVYYCARATYTTGWSYFDYWGQGTLVTVSS VL: SYELTQSPSVSVSPGQTASITCSGDKLGDKYTSWYQQKPGQSPVLVIYHDRKRPSGIPERFSGSNSGNTATLTISGTQAMDEADYYCQAYDRSTAWVFGCGTKLTVLR",EC50 (read off the curve),[1],~0.03 nM
same,EC50 (read off the curve),[2],~0.01 nM
same,EC50 (read off the curve),[3],~0.006 nM
same,EC50 (read off the curve),[4],~0.1 nM
same,EC50 (read off the curve),[5],~0.02 nM
same,EC50 (read off the curve),[6],~0.05 nM
same,EC50 (read off the curve),[7],~0.4 nM
same,EC50 (read off the curve),[8],~0.04 nM
same,EC50 (read off the curve),[9],~0.01 nM
